Assay results reported in publication PMC8310280.

Target: Shiftless (SHFL) WT (human) (UniProt Q9NUL5)
Test: EMSA

Chain of Shiftless (SHFL) WT (human) (Q9NUL5 whole entry): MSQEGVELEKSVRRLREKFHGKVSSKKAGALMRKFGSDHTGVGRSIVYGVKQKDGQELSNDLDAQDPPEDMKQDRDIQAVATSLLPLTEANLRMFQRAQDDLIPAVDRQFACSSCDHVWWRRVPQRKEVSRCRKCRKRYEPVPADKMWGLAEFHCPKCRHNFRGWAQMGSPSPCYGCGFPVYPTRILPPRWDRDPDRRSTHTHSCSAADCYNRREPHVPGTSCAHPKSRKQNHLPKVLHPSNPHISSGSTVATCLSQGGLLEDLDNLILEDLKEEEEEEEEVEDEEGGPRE

Substance	Kd [nM]
GACCCUAGAUGACUAGGGAGGUCAGGGACACGAGCCCCCCCCUGAACCCAGGAUAACCCUCAAAGUCGGGGGGCAACCCGUCAC [MuLV S1]	500
GACCCUAGAUGACUAGGGAGGUCAGGGUCAGGAGCCCCCCCCUGAACCCAGGAUAACCCUCAAAGUCGGGGGGCAACCCGUCAC [MuLV RT signal]	500
IBVmax (wild-type pseudoknot)	500
control RNA (SARS-CoV-2 antigenome)	500
